Test results as given in patent US20060259987A1 (UNIVERSITY OF UTAH RESEARCH FOUNDATION, published 2006).
Substitutions are numbered along the chain they refer to. Names may count otherwise.

T1: human neutrophil cathepsin G (human, UniProt P08311 21-244)
T1 sequence (looked up): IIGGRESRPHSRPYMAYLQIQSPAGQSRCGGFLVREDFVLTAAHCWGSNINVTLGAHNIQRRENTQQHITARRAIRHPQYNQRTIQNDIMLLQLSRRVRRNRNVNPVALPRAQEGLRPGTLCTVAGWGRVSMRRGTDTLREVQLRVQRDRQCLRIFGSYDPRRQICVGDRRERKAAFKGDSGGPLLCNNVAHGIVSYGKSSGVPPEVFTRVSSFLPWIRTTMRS

T2: human neutrophil elastase (human, UniProt P08246 30-247, limits assumed)
T2 sequence (looked up): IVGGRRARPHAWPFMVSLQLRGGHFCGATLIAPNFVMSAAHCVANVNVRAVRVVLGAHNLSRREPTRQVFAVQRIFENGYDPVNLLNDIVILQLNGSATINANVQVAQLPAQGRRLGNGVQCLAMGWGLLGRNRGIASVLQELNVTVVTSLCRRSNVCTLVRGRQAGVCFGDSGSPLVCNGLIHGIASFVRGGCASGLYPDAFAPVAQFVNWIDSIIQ

B1: 13C.435 (other)
chain: SPVDICTAKPRDIPMNPMCIYRSPEKKATEDEGSEQKIPEATNRRVWELSKANSRFATTFYQHLADSKNDNDNIFLSPLSISTAFAMTKLGACNDTLQQLMEVFKFDTISEKTSDQIHFFFAKLNCRLYRKANKASKLVSANRLFGDKSLTFNETYQDISELVYGAKLQPLDFKENAEQSRAAINKWVSNKTEGRITDVIPSEAINELTVLVLVNTIYFKGLWKSKFSPENTRKELFYKADGESCSASMMYQEGKFRYRRVAEGTQVLELPFKGDDITMVLILPKPEKSLAKVEKELTPEVLQEWLDELEEMMLVVHMPRFRIEDGFSLKEQLQDMGLVDLFSPEKSKLPGIVAEGRDDLYVSDAFHKAFLEVNEEGSEAAASTELEWAGRSLNPNRVTFKANRPFLVFIREVPLNTIIFMGRVANPCVK
notes: Made in Drosophila S2 cells (DES) on the S137A background; N-terminus printed as SPVDI---
B2: 13C.444 (other)
chain: B1 chain with W388V, G390P
modifications: N-linked glycans added by Drosophila S2 cells; not carried by the letters
notes: as for B1
B3: 13C.434 (other)
chain: B1 chain with W388F
notes: as for B1
B4: 13C (other)
chain: B1 chain with W388G
notes: N-terminus printed as SPVDI---; text (ELEG) and primer codon GAG give E
B5: 7EVEA.455 (other)
chain: B1 chain with L386V, W388V
modifications: N-linked glycans added by Drosophila S2 cells; not carried by the letters
notes: as for B1
B6: 7EVEA.458 (other)
chain: B1 chain with L386V, W388A, G390P
modifications: N-linked glycans added by Drosophila S2 cells; not carried by the letters
notes: as for B1
B7: 7EVEA.459 (other)
chain: B1 chain with L386V, W388I, G390P
notes: as for B1
B8: 13C.438 (other)
chain: B1 chain with W388N
modifications: N-linked glycans added by Drosophila S2 cells; not carried by the letters
notes: as for B1
B9: LEAQ.502 (other)
chain: B1 chain with E385A, E387S, W388A, A389Q
notes: also called DES.LEAQ.502
B10: LEAQ.503 (other)
chain: B1 chain with E385A, E387T, W388A, A389Q
notes: also called DES.LEAQ.503
B11: LEAQ.506 (other)
chain: B1 chain with E385A, E387H, W388A, A389Q
notes: also called DES.LEAQ.506
B12: LEAQ.508 (other)
chain: B1 chain with E385A, E387K, W388A, A389Q
notes: also called DES.LEAQ.508
B13: LEAQ.504 (other)
chain: B1 chain with E385A, E387N, W388A, A389Q
notes: also called DES.LEAQ.504

Target: T3, factor Xa (human, UniProt P00742 41-179; P00742 235-488, limits assumed)
T3 construct: Active factor Xa has a light and a heavy chain; also called fXa
T3 sequence (P00742 41-179 limits assumed, form in doubt, chain 1 of 2): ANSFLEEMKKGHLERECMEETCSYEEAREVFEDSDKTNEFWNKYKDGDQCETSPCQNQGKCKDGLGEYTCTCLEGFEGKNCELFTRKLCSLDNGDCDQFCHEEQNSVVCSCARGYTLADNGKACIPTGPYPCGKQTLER
T3 sequence (P00742 235-488 limits assumed, form in doubt, chain 2 of 2): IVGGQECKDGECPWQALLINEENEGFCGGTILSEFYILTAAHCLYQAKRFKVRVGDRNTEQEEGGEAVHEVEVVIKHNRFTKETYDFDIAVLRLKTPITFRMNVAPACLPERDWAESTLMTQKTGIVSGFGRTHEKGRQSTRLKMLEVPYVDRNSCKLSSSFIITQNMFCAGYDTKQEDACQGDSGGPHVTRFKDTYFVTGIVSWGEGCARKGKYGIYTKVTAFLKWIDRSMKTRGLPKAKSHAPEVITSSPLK
Assay: heparin cofactor assay, HCA expt #2; ATIII titrated on 10 nM fXa + 50 ug/ml UFH, chromogenic readout
Procedure: (§1) After 3 minutes, the reactions were quenched with polybrene and chromogenic substrate S2238 (thrombin) or S2765 (fXa), and the initial rate of chromophore production (405 nm) recorded to obtain a measurement residual, uninhibited thrombin or factor Xa. IC50s were determined from plots of ATIII concentration vs. percent residual target enzyme activity.

Binder | IC50 [nM]
B1 | 34
B2 | 40
B3 | 17

Target: T4, thrombin (human, UniProt P00734 328-622)
Assay: cell-based or functional assay

Binder | rsd. IIa catG; CA expt #7; stg1 conc 200 | rsd. IIa hne; CA expt #7; stg1 conc 200 | rsd. IIa no add; CA expt #7; stg1 conc 200 | rsd. IIa catG; CA expt #8; stg1 conc 200 | rsd. IIa hne; CA expt #8; stg1 conc 200 | rsd. IIa no add; CA expt #8; stg1 conc 200
B1 | 5 % of activity without ATIII | 4 % of activity without ATIII | 5 % of activity without ATIII |  |  | 
B2 | 5 % of activity without ATIII | 14 % of activity without ATIII | 6 % of activity without ATIII |  |  | 
B3 | 5 % of activity without ATIII | 4 % of activity without ATIII | 5 % of activity without ATIII | 30 % of activity without ATIII | 12 % of activity without ATIII | 8 % of activity without ATIII

Target: T3, factor Xa
Assay: cell-based or functional assay

Binder | rsd. Xa catG; CA expt #7; stg1 conc 200 | rsd. Xa hne; CA expt #7; stg1 conc 200 | rsd. Xa no add; CA expt #7; stg1 conc 200 | rsd. Xa catG; CA expt #8; stg1 conc 200 | rsd. Xa hne; CA expt #8; stg1 conc 200 | rsd. Xa no add; CA expt #8; stg1 conc 200
B1 | 3 % of activity without ATIII | 3 % of activity without ATIII | 3 % of activity without ATIII |  |  | 
B2 | 3 % of activity without ATIII | 3 % of activity without ATIII | 3 % of activity without ATIII |  |  | 
B3 | 2 % of activity without ATIII | 3 % of activity without ATIII | 4 % of activity without ATIII | 1 % of activity without ATIII | 1 % of activity without ATIII | 2 % of activity without ATIII

Target: T3, factor Xa
Assay: heparin cofactor assay, HCA expt #4; ATIII titrated on 10 nM fXa + 50 ug/ml UFH, chromogenic readout
Procedure: as §1

Binder | IC50 [nM]
B4 | 33
B5 | 110
B6 | 250
B7 | 75
B8 | 22

Target: T5, human thrombin (human, UniProt P00734 328-622)
Assay: thrombin inhibition rate in the presence of heparin (HAH)

Binder | Kapp, thrombin HAH [M⁻¹ s⁻¹]
B9 | 1.1e+07
B10 | 1.6e+07
B11 | 1.1e+07
B12 | 1.1e+07
B13 | 6.1e+06

Target: T5, human thrombin
Assay: cell-based or functional assay

Binder | IC50 IIa/UFH (HCA #5) [nM] | IC50 IIa/UFH (HCA #6) [nM] | rsd IIa, no add (CA #51, stg 1 conc 200) [%]
B9 | 16 | 18 | 1
B10 | 13 |  | 0
B11 | 9 |  | 
B12 | 18 |  | 1
B13 | 17 |  | 1

Target: T1, human neutrophil cathepsin G
Assay: cell-based or functional assay

Binder | rsd IIa, catG (CA #51, stg 1 conc 200) [%] | rsd Xa, catG (CA #51, stg 1 conc 200) [%]
B9 | 2 | -1
B10 | 1 | -2
B12 | 1 | -2
B13 | 1 | -1

Target: T2, human neutrophil elastase
Assay: cell-based or functional assay

Binder | rsd IIa, HNE (CA #51, stg 1 conc 200) [%] | rsd Xa, HNE (CA #51, stg 1 conc 200) [%]
B9 | 1 | 1
B10 | 1 | 0
B12 | 1 | -3
B13 | 1 | 1

Target: human factor Xa (human, UniProt P00742 41-179; P00742 235-488, limits assumed)
Sequence (P00742 41-179 limits assumed, chain 1 of 2): as the sequence (P00742 41-179 limits assumed, form in doubt, chain 1 of 2) above
Sequence (P00742 235-488 limits assumed, chain 2 of 2): as the sequence (P00742 235-488 limits assumed, form in doubt, chain 2 of 2) above
Assay: cell-based or functional assay

Binder | IC50 fXa/UFH (HCA #5) [nM] | IC50 fXa/UFH (HCA #6) [nM] | rsd Xa, no add (CA #51, stg 1 conc 200) [%]
B9 | 12 | 19 | 1
B10 | 11 |  | 1
B11 | 13 |  | 
B12 | 19 |  | -1
B13 | 14 |  | 0

Target: T4, thrombin
Assay: heparin cofactor assay, HCA expt #4; ATIII titrated on 10 nM thrombin + 50 ug/ml UFH, chromogenic readout
Procedure: as §1

Binder | IC50 [nM]
B4 | > 1000
B5 | > 1000
B6 | > 1000
B7 | > 1000
B8 | > 1000

Target: T5, human thrombin
Assay: thrombin inhibition rate in the absence of heparin

Binder | Kapp, thrombin progressive [M⁻¹ s⁻¹]
B9 | 3000
B10 | 3700
B11 | 4100
B12 | 4100
B13 | 3300

Target: T4, thrombin
Assay: heparin cofactor assay, HCA expt #2; ATIII titrated on 10 nM thrombin + 50 ug/ml UFH, chromogenic readout
Procedure: as §1

Binder | IC50 [nM]
B1 | 700
B2 | > 1000
B3 | 500
